One molecule from article doi:10.1101/2023.05.28.542642 (bioRxiv, 2023) can be followed below.

The experiment has as its target calmodulin (recombinant bovine CaM) (bovine, UniProt P62157 1-149). As to the kind of experiment: fluorescence polarisation. A general note: Fluorescence polarisation rises when a labelled molecule tumbles more slowly, as on binding a larger partner.

Ends that are not written are not given here.

Take {BODIPY TR‑X}-KKKKKRFSFKKSFKLSGFSFKKNKK [MARCKS effector domain (aa 151-175) labeled with BODIPY TR]: the binding result is reported as “binds”.
